This note sets out measurements from patent US20220153847A1 (Chugai, published 2022).

The target of assay [1] is DQ2.5/alpha 1 gliadin peptide on IHW9023 cells (human). The assay is described as follows: cell-based or functional assay.
The target in assay [2] is DQ2.5/alpha 2 gliadin peptide on IHW9023 cells (human). The assay is described as follows: cell-based or functional assay.
Assay [3] addresses DQ2.5/omega 1 gliadin peptide on IHW9023 cells (human). Put plainly: cell-based or functional assay.
Assay [4] addresses DQ2.5/omega 2 gliadin peptide on IHW9023 cells (human). The assay is described as follows: cell-based or functional assay.
Assay [5] has as its target DQ2.5/gamma 1 gliadin peptide on IHW9023 cells (human). Put plainly: cell-based or functional assay.
For assay [6], the target named is DQ2.5/BC hordein peptide on IHW9023 cells (human). Put plainly: cell-based or functional assay.
The target of assay [7] is DQ2.5/alpha 1b gliadin peptide on IHW9023 cells (human). Put plainly: cell-based or functional assay.
The next assay deals with T1, HLA-DQ2.2 on Ba/F3 cells (human, UniProt P01909 24-216, limits assumed).
T1 construct: whole, on cells; also called Ba/F3-HLA-DQ2.2
T1 MHC II alpha: not shown
T1 MHC II beta: not shown
Put plainly: FACS, Ba/F3 cells; IC17=0%, DQN0139bb//IC17=100%.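 Further: flow cytometry binding of anti-HLA-DQ antibodies at 5 µg/mL, incubated 30 min at room temperature with Ba/F3 lines presenting HLA-DQ/peptide complexes; antibody tested at 5 microgram/mL.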 In general terms: In flow cytometry, cells or beads pass a laser one at a time.

In assay [8] the target is T2, HLA-DQ2.5/alpha 1 gliadin peptide complex on Ba/F3 cells (human).
T2 construct: whole, on cells; also called Ba/F3-HLA-DQ2.5/alpha 1 gliadin; HLA-DQ2.5/a1 gliadin
The assay is described as follows: FACS, Ba/F3 cells; IC17=0%, DQN0139bb//IC17=100%.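 Further: flow cytometry binding of anti-HLA-DQ antibodies at 5 µg/mL, incubated 30 min at room temperature with Ba/F3 lines presenting HLA-DQ/peptide complexes; antibody tested at 5 microgram/mL.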
Description: (§1) The binding of anti-HLA-DQ antibodies to Ba/F3-HLA-DQ2.5, Ba/F3-HLA-DQ2.2, Ba/F3-HLA-DQ7.5, Ba/F3-HLA-DQ8, Ba/F3-HLA-DQ5.1, Ba/F3-HLA-DQ6.3, Ba/F3-HLA-DQ7.3, Ba/F3-HLA-DR, Ba/F3-HLA-DP, Ba/F3-HLA-DQ2.5/CLIP, Ba/F3-HLA-DQ2.5/HBV, Ba/F3-HLA-DQ2.5/Salmonella, Ba/F3-HLA-DQ2.5/TPO, Ba/F3-HLA-DQ2.5/M. bovis, Ba/F3-HLA-DQ2.5/alpha 1 gliadin, Ba/F3-HLA-DQ2.5/alpha 2 gliadin, Ba/F3-HLA-DQ2.5/gamma 1 gliadin, Ba/F3-HLA-DQ2.5/gamma 2 gliadin, Ba/F3-HLA-DQ2.5/omega 1 gliadin, Ba/F3-HLA-DQ2.5/omega 2 gliadin, Ba/F3-HLA-DQ2.5/BC hordein, Ba/F3-HLA-DQ2.5/alpha 3 gliadin, Ba/F3-HLA-DQ2.5/alpha 1b gliadin, Ba/F3-HLA-DQ2.5/gamma 4b gliadin, Ba/F3-HLA-DQ2.5/avenin 1, Ba/F3-HLA-DQ2.5/avenin 2, Ba/F3-HLA-DQ2.5/avenin 3, Ba/F3-HLA-DQ2.5/hordein 1, Ba/F3-HLA-DQ2.5/hordein 2, Ba/F3-HLA-DQ2.5/secalin 1, Ba/F3-HLA-DQ2.5/secalin 2, Ba/F3-HLA-DQ2.5/14mer 1, Ba/F3-HLA-DQ2.5/33mer gliadin, Ba/F3-HLA-DQ2.5/26mer gliadin, was tested. 5 microgram/mL of each of the anti-HLA-DQ antibodies was incubated with each cell line for 30 minutes at room temperature and washed with FACS buffer (2% FBS, 2 mM EDTA in PBS).

Assay [9] addresses T3, HLA-DQ2.5/alpha 2 gliadin peptide complex on Ba/F3 cells (human).
T3 construct: whole, on cells; also called Ba/F3-HLA-DQ2.5/alpha 2 gliadin; HLA-DQ2.5/a2 gliadin
Put plainly: FACS, Ba/F3 cells; IC17=0%, DQN0139bb//IC17=100%.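 Further: flow cytometry binding of anti-HLA-DQ antibodies at 5 µg/mL, incubated 30 min at room temperature with Ba/F3 lines presenting HLA-DQ/peptide complexes; antibody tested at 5 microgram/mL.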
Description: as §1

The target in assay [10] is T4, HLA-DQ2.5/gamma 1 gliadin peptide complex on Ba/F3 cells (human).
T4 construct: whole, on cells; also called Ba/F3-HLA-DQ2.5/gamma 1 gliadin; HLA-DQ2.5/g1 gliadin
Put plainly: FACS, Ba/F3 cells; IC17=0%, DQN0139bb//IC17=100%.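 Further: flow cytometry binding of anti-HLA-DQ antibodies at 5 µg/mL, incubated 30 min at room temperature with Ba/F3 lines presenting HLA-DQ/peptide complexes; antibody tested at 5 microgram/mL.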
Description: as §1

Assay [11] has as its target T5, HLA-DQ2.5/gamma 2 gliadin peptide complex on Ba/F3 cells (human).
T5 construct: whole, on cells; also called Ba/F3-HLA-DQ2.5/gamma 2 gliadin; HLA-DQ2.5/g2 gliadin
Put plainly: FACS, Ba/F3 cells; IC17=0%, DQN0139bb//IC17=100%.
Description: as §1

In assay [12] the target is T6, HLA-DQ2.5/omega 1 gliadin peptide complex on Ba/F3 cells (human).
T6 construct: whole, on cells; also called Ba/F3-HLA-DQ2.5/omega 1 gliadin; HLA-DQ2.5/w1 gliadin
Put plainly: FACS, Ba/F3 cells; IC17=0%, DQN0139bb//IC17=100%.
Description: as §1

The target of assay [13] is T7, HLA-DQ2.5/omega 2 gliadin peptide complex on Ba/F3 cells (human).
T7 construct: whole, on cells; also called Ba/F3-HLA-DQ2.5/omega 2 gliadin; HLA-DQ2.5/w2 gliadin
Put plainly: FACS, Ba/F3 cells; IC17=0%, DQN0139bb//IC17=100%.
Description: as §1

The target in assay [14] is T8, HLA-DQ2.5/BC hordein peptide complex on Ba/F3 cells (human).
T8 construct: whole, on cells; also called Ba/F3-HLA-DQ2.5/BC hordein
Put plainly: FACS, Ba/F3 cells; IC17=0%, DQN0139bb//IC17=100%.
Description: as §1

Assay [15] addresses T9, HLA-DQ2.5/alpha 3 gliadin peptide complex on Ba/F3 cells (human).
T9 construct: whole, on cells; also called Ba/F3-HLA-DQ2.5/alpha 3 gliadin; HLA-DQ2.5/a3 gliadin
The assay is described as follows: FACS, Ba/F3 cells; IC17=0%, DQN0139bb//IC17=100%.
Description: as §1

Assay [16] has as its target T10, HLA-DQ2.5/alpha 1b gliadin peptide complex on Ba/F3 cells (human).
T10 construct: whole, on cells; also called Ba/F3-HLA-DQ2.5/alpha 1b gliadin; HLA-DQ2.5/a1b gliadin
The assay is described as follows: FACS, Ba/F3 cells; IC17=0%, DQN0139bb//IC17=100%.
Description: as §1

The target in assay [17] is T11, HLA-DQ2.5/gamma 4b gliadin peptide complex on Ba/F3 cells (human).
T11 construct: whole, on cells; also called Ba/F3-HLA-DQ2.5/gamma 4b gliadin; HLA-DQ2.5/g4b gliadin
Put plainly: FACS, Ba/F3 cells; IC17=0%, DQN0139bb//IC17=100%.
Description: as §1

In assay [18] the target is T12, HLA-DQ2.5/avenin 1 peptide complex on Ba/F3 cells (human).
T12 construct: whole, on cells; also called Ba/F3-HLA-DQ2.5/avenin 1
The assay is described as follows: FACS, Ba/F3 cells; IC17=0%, DQN0139bb//IC17=100%.
Description: as §1

Assay [19] deals with T13, HLA-DQ2.5/avenin 2 peptide complex on Ba/F3 cells (human).
T13 construct: whole, on cells; also called Ba/F3-HLA-DQ2.5/avenin 2
Put plainly: FACS, Ba/F3 cells; IC17=0%, DQN0139bb//IC17=100%.
Description: as §1

In assay [20] the target is T14, HLA-DQ2.5/avenin 3 peptide complex on Ba/F3 cells (human).
T14 construct: whole, on cells; also called Ba/F3-HLA-DQ2.5/avenin 3
Put plainly: FACS, Ba/F3 cells; IC17=0%, DQN0139bb//IC17=100%.
Description: as §1

Assay [21] has as its target T15, HLA-DQ2.5/hordein 1 peptide complex on Ba/F3 cells (human).
T15 construct: whole, on cells; also called Ba/F3-HLA-DQ2.5/hordein 1
The assay is described as follows: FACS, Ba/F3 cells; IC17=0%, DQN0139bb//IC17=100%.
Description: as §1

The target in assay [22] is T16, HLA-DQ2.5/hordein 2 peptide complex on Ba/F3 cells (human).
T16 construct: whole, on cells; also called Ba/F3-HLA-DQ2.5/hordein 2
The assay is described as follows: FACS, Ba/F3 cells; IC17=0%, DQN0139bb//IC17=100%.
Description: as §1

In assay [23] the target is T17, HLA-DQ2.5/secalin 1 peptide complex on Ba/F3 cells (human).
T17 construct: whole, on cells; also called Ba/F3-HLA-DQ2.5/secalin 1
The assay is described as follows: FACS, Ba/F3 cells; IC17=0%, DQN0139bb//IC17=100%.
Description: as §1

Assay [24] addresses T18, HLA-DQ2.5/secalin 2 peptide complex on Ba/F3 cells (human).
T18 construct: whole, on cells; also called Ba/F3-HLA-DQ2.5/secalin 2
Put plainly: FACS, Ba/F3 cells; IC17=0%, DQN0139bb//IC17=100%.
Description: as §1

Assay [25] deals with T19, HLA-DQ2.5/14mer 1 peptide complex on Ba/F3 cells (human).
T19 construct: whole, on cells; also called Ba/F3-HLA-DQ2.5/14mer 1
The assay is described as follows: FACS, Ba/F3 cells; IC17=0%, DQN0139bb//IC17=100%.
Description: as §1

Assay [26] addresses T20, HLA-DQ2.5/26mer gliadin peptide complex on Ba/F3 cells (human).
T20 construct: whole, on cells; also called Ba/F3-HLA-DQ2.5/26mer gliadin
The assay is described as follows: FACS, Ba/F3 cells; IC17=0%, DQN0139bb//IC17=100%.
Description: as §1

Assay [27] deals with T21, HLA-DQ2.5 on HLA-DQ2.5-positive PBMC B cells (human, UniProt P01909 24-254; P01920 33-261).
T21 construct: whole, on cells; also called HLA-DQ2.5+ PBMC B cell
T21 MHC II alpha: not shown
T21 MHC II beta: not shown
The assay is described as follows: FACS, PBMC B cells; IC17=0%, DQN0139bb//IC17=100%.

Assay [28] has as its target T22, HLA-DQ2.5/33mer gliadin peptide complex on Ba/F3 cells (human).
T22 construct: whole, on cells; also called Ba/F3-HLA-DQ2.5/33mer gliadin
The assay is described as follows: FACS, Ba/F3 cells; IC17=0%, DQN0139bb//IC17=100%.
Description: as §1

Changes are numbered by the printed parent chain.

Description for HLA-DQ2.2 on Ba/F3 cells: as §1

B1: DQN0344xx//DQN0429cc (bispecific antibody, human IgG1, kappa)
heavy 1: QSLEESGGGLVKPGGTLTLTCTASGFSFSSSYWMCWVRQAPGKGLEWVACVYGGSDTTYYASWTKGRFTISKGSSTTVALQVTSLTAADTATYFCARDPLNYYYYGELNLWGPGTLVTVSSASTKGPSVFPLAPSSKSTSGGTAALGCLVKDYFPEPVTVSWNSGALTSGVHTFPAVLQSSGLYSLSSVVTVPSSSLGTQTYICNVNHKPSNTKVDKRVEPKSCDKTHTCPPCPAPELRRGPSVFLFPPKPKDTLMISRTPEVTCVVVDVSHEDPEVKFNWYVDGVEVHNAKTKPREEQYNSTYRVVSVLTVLHQDWLNGKEYKCKVSNKALPAPIEKTISKAKGQPREPQVYTLPPSREEMTKNQVSLTCLVKGFYPSDIAVEWESNGQPENNYKTTPPYLDSDGSFFLYSKLTVDKSRWQQGNVFSCSVMHEALHNHYTQESLSLSP
light 1: AVVLTQTASPVSAAVGGTVTIRCQATENIYSGLAWYQQKPGQPPKVLIYYVSTLASGVPSRFKGSGSGTEYTLTISGVQCDDAATYYCQTYHDISNVTFGGGTKVEIKRTVAAPSVFIFPPSDEQLKSGTASVVCLLNNFYPREAKVQWKVDNALQSGNSQESVTEQDSKDCTYSLSSTLTLSKADYEKHKVYACEVTHQGLSSPVTKSFNRGEC
heavy 2: QEQLVESGGGLVQPEGSLTLTCTASGFSFSSSYYMCWVRQAPGKGLEWIGCIYTGSGSTDYATWVNGRFTISKTSSTTVTLQMTSLTVADTATYFCARDIGIDYNFWGPGTLVTVSSASTKGPSVFPLAPSSKSTSGGTAALGCLVKDYFPEPVTVSWNSGALTSGVHTFPAVLQSSGLYSLSSVVTVPSSSLGTQTYICNVNHKPSNTKVDKRVEPKSCDKTHTCPPCPAPELRRGPSVFLFPPKPKDTLMISRTPEVTCVVVDVSHEDPEVKFNWYVDGVEVHNAKTKPREEQYNSTYRVVSVLTVLHQDWLNGKEYKCKVSNKALPAPIEKTISKAKGQPREPQVYTLPPSRKEMTKNQVSLTCLVKGFYPSDIAVEWESNGQPENNYKTTPPYLDSDGSFFLYSKLTVDKSRWQQGNVFSCSVMHEALHNHYTQKSLSLSP
light 2: AFELTQTPSFVEARVGGTVTIKCQATQSISSYLNWYQQKPGQPPKLLIYYASTLASGVPSRFKGSGSGTEFTLTISGVECADAATYYCHYGISYVSFGGGTKVEIKRTVAAPSVFIFPPSDEQLKSGTASVVCLLNNFYPREAKVQWKVDNALQSGNSQESVTEQDSKDCTYSLSSTLTLSKADYEKHKVYACEVTHQGLSSPVTKSFNRGEC
For the molecule B1, the “IC50, Jurkat NFAT-Luc T cell activation” value amounted to 49.8 ng/mL in assay [1]; 1.96 ng/mL in assay [2]; 39.7 ng/mL in assay [3]; 14.6 ng/mL in assay [4]; 94.7 ng/mL in assay [5]; 415 ng/mL in [6]. In assay [7], the “IC50, Jurkat NFAT-Luc T cell activation” value is 171 ng/mL. For the same molecule, the “% MFI” value with HLA-DQ2.2 on Ba/F3 cells was 0.8%; in [8] it was 63.1%; in assay [9], 58.7%; in assay [10] it was 16.9%; in assay [11], 1.3%; in assay [12], 43%. Moreover, the “% MFI” value in [13] amounted to 19.3%; in assay [14], 18.5%; in assay [15] it was 18%; in [16], 64.6%; in [17], 6.2%; in assay [18] it was 14.2%. The “% MFI” value in [19] came to 18.3%; in [20], 19.6%; in [21], 20.3%; in assay [22], 90%; in assay [23], 37.8%; in assay [24], 43.3%. Further, the “% MFI” value was found to be 19.4% in assay [25], 30.7% in [26] and 0.4% in assay [27].

B2: DQN0429cc//IC17 (bispecific antibody, human IgG1, kappa)
heavy 1: B1 heavy 2 with K356E, K439E
light 1: B1 light 2
heavy 2: QVQLQQSGPQLVRPGASVKISCKASGYSFTSYWMHWVNQRPGQGLEWIGMIDPSYSETRLNQKFKDKATLTVDKSSSTAYMQLSSPTSEDSAVYYCALYGNYFDYWGQGTTLTVSSASTKGPSVFPLAPSSKSTSGGTAALGCLVKDYFPEPVTVSWNSGALTSGVHTFPAVLQSSGLYSLSSVVTVPSSSLGTQTYICNVNHKPSNTKVDKRVEPKSCDKTHTCPPCPAPELRRGPSVFLFPPKPKDTLMISRTPEVTCVVVDVSHEDPEVKFNWYVDGVEVHNAKTKPREEQYNSTYRVVSVLTVLHQDWLNGKEYKCKVSNKALPAPIEKTISKAKGQPREPQVYTLPPSRKEMTKNQVSLTCLVKGFYPSDIAVEWESNGQPENNYKTTPPYLDSDGSFFLYSKLTVDKSRWQQGNVFSCSVMHEALHNHYTQKSLSLSP
light 2: DIQMTQSSSSFSVSLGDRVTITCKASEDIYNRLAWYQQKPGNAPRLLISGATSLETGVPSRFSGSGSGKDYTLSITSLQTEDVATYYCQQYWSTPYTFGGGTKLEVKRTVAAPSVFIFPPSDEQLKSGTASVVCLLNNFYPREAKVQWKVDNALQSGNSQESVTEQDSKDSTYSLSSTLTLSKADYEKHKVYACEVTHQGLSSPVTKSFNRGEC
Turning to B2, the “% MFI” value with HLA-DQ2.2 on Ba/F3 cells came out at 0.3%; in assay [28], 67.1%; in assay [8], 3.5%; in assay [9] it was 55.5%; in assay [10], 12.6%; in [11] it was 0.8%. For the same molecule, the “% MFI” value is 11.5% in assay [12]; 45.4% in assay [13]; 14.9% in assay [14]; 0.8% in assay [15]; 9.2% in assay [16]; 3.2% in assay [17]. For the same molecule, the “% MFI” value was 1.5% in assay [21]; 93.2% in [22]; 10.9% in assay [23]; 30.6% in [24]; 16.3% in [25]; 26.2% in [26].
